B1: P056028-B-03 (protein)
chain: MGPTPTATAAGAAVAAASAAEQAAFRLVGHRNFVRFNPRSDRFQTLAFHHVELWCADAASAAGRFSFALGVPLAARSDLSTGNSAHASLLLRSGSLSLLFTAPYAHGADAATAALPSFSAAAARRFAADHGLAVRAVALRVADAEDAFRASVAAGARPAFGPVDLGRGFRLAEVELYGDVVLRYVSYPDGAAGEPFLPGFEGVASPGAADYGLNRFDHIVGNVPELAPAAAYMAGFTGFHEFAEFTTEDVGTTESGLNSMALANNSENVLLPLNEPVHGTKRRSQIQTFLDHHGGPGVQHIALASDDVLRTLREMRARSAMGGFEFLPPPLSDYYDGVRRCAGDVLTEAQINECQRLGVMVDRDDEGVLLQIFTKPVGDRPTFFLEIIQRIGCMEKDEKGQEYQKGGCGGFGKGNFGQLFKSIEDYEKSLEAKQAAAAATAQGS
modifications: Zea mays variant form created by artificial means.
B2: P056028-C-10 (protein)
chain: B1 chain with P188S, N214S, R340K, R356E
modifications: Zea mays variant form created by artificial means.
B3: P056028-C-03 (protein)
chain: B1 chain with F67Y, N214S, R340K, R356E, L385I, I387L
modifications: Zea mays variant form created by artificial means.
B4: P056028-C-02 (protein)
chain: B1 chain with Y211L, N214S, R356K
modifications: Zea mays variant form created by artificial means.
B5: P056028-B-07 (protein)
chain: B1 chain with P206Q, N214S, R356E, L385I, I387L
modifications: Zea mays variant form created by artificial means.
B6: P056028-B-08 (protein)
chain: B1 chain with N214S, R340K, R356E
modifications: Zea mays variant form created by artificial means.
B7: P056028-B-05 (protein)
chain: B1 chain with N214S, K281R, R340K, R356E, I387L
modifications: Zea mays variant form created by artificial means.
B8: P056028-B-04 (protein)
chain: B1 chain with L182M, P206S, R340K, R356E
modifications: Zea mays variant form created by artificial means.
B9: P056028-B-06 (protein)
chain: B1 chain with N214S, R356K
modifications: Zea mays variant form created by artificial means.
B10: P056028-C-11 (protein)
chain: B1 chain with Y211L, N214S, R340K, R356E, I387L
modifications: Zea mays variant form created by artificial means.

Positions count from the first letter of the chain named.

For one data set, the system named is 4-hydroxyphenylpyruvate dioxygenase (HPPD). The data set can be described thus: ON rate ratio: HPPD reaction rate with vs without inhibitor in the 70 to 90 second interval. The class given is biochemical, Z. mays. As to conditions: Table 7; tembotrione; combinatorial variants. From the text:
(§1) Higher KD (reduced affinity or increased insensitivity) can be attained with a numerically smaller ON rate, a larger OFF rate or both. To detect and quantify changes in kON and kOFF, observations of the time course of an HPPD reaction as inhibitor binds to and inactivates the enzyme (kON), or is released from a pre-formed enzyme-inhibitor complex (kOFF) were used, as shown in FIGS. 13A and 13B. In practice, a quantitative indicator of kON was obtained by monitoring the time courses of HPPD reactions containing 60 or 120 nM HPPD and 100 μM HPP in the presence and absence of 4 μM inhibitor (e.g., mesotrione or tembotrione). The ratio of the reaction rate with inhibitor to that without inhibitor during the 70 to 90 second interval of the reaction was termed the “ON rate ratio”. The smaller the actual kON, the more slowly the HPPD reaction decelerates and the higher the value is for the ON rate ratio. FIGS. 13A and 13B illustrate the contrasting reaction velocity in the 70-90 sec interval for maize wild-type HPPD (FIG. 13A) versus an improved variant (SEQ ID NO:78) (FIG. 13B).
Turning to B1, the ON rate ratio is on record as 0.732.

In the case of B2, the ON rate ratio is 0.699.

In the case of B3, the ON rate ratio stood at 0.739.

With B4, the ON rate ratio is 0.717.

Regarding B5, the ON rate ratio was 0.788.

For B6, the ON rate ratio was determined as 0.681.

Turning to B7, the ON rate ratio is 0.734.

Take B8: the ON rate ratio worked out at 0.718.

On to B9, for which the ON rate ratio came to 0.713.

On to B10, for which the ON rate ratio is 0.731.

For a further data set the test system is unchanged. The data set can be described thus: Insensitivity parameter (ON × OFF) and trait fitness (ON × OFF × kcat/KM or × kcat). As to conditions: Megatable 3; shuffled variants. The class given is biochemical, Z. mays. The arrangement: key to ON × OFF / Insensitivity, mesotrione, ON × OFF / Insensitivity, tembotrione, ON × OFF / Insensitivity, topramezone, ON × OFF / Insensitivity, sulcotrione, ON × OFF / Insensitivity, isoxaflutole (DKN), ON × OFF: insensitivity = ON rate ratio × OFF rate ratio (surrogate for KD). From the text: Because substrate and inhibitors bind in the same site, the high concentration of substrate present may competitively trap the inhibitor and prevent it from binding again. To be sure that improvement in ON rates is being taken into account, the ON and OFF rate ratios were multiplied, creating an “insensitivity parameter” that is a surrogate for KD. KD is expressed as kOFF/kON, but because the ON rate ratio is an inverse parameter (the higher the value of ON rate ratio, the lower the value of the represented phenomenon, kON), it is appropriate to multiply ON and OFF rate ratios rather then divide OFF rate ratio by ON rate ratio. Another parameter, which quantifies the combined catalytic and insensitivity properties of the enzyme is kcat/KM×ON rate ratio×OFF rate ratio, and is termed “trait fitness”. This parameter is intended to have a meaning similar to the commonly used expression kcat/KM×Ki.
Turning to B1, the “ON × OFF” value is recorded as 0.259 and the “ON × OFF × kcat” value is 4.63.

B2: the “ON × OFF” value came to 0.249 and the “ON × OFF × kcat” value came out at 3.63.

B3: the “ON × OFF” value amounted to 0.263 and the “ON × OFF × kcat” value was 3.62.

Regarding B4, the “ON × OFF” value stood at 0.272 and the “ON × OFF × kcat” value is recorded as 5.11.

Take B5: the “ON × OFF” value worked out at 0.307 and the “ON × OFF × kcat” value was determined as 2.83.

As for B6, the “ON × OFF” value is 0.221 and the “ON × OFF × kcat” value was 3.44.

B7: the “ON × OFF” value is given as 0.211 and the “ON × OFF × kcat” value stood at 3.85.

As for B8, the “ON × OFF” value is 0.196 and the “ON × OFF × kcat” value stood at 3.24.

As for B9, the “ON × OFF” value worked out at 0.252 and the “ON × OFF × kcat” value is reported as 5.03.

With B10, the “ON × OFF” value stood at 0.214 and the “ON × OFF × kcat” value worked out at 2.64.

The same data set, now with this note: Table 7; tembotrione; combinatorial variants.
In the case of B1, the “ON × OFF” value was found to be 0.259 and the “ON × OFF × kcat” value came out at 4.63.

B2: the “ON × OFF” value was determined as 0.249 and the “ON × OFF × kcat” value was determined as 3.63.

For B3, the “ON × OFF” value stood at 0.263 and the “ON × OFF × kcat” value came out at 3.62.

Take B4: the “ON × OFF” value turned out to be 0.272 and the “ON × OFF × kcat” value is reported as 5.11.

For the molecule B5, the “ON × OFF” value is on record as 0.307 and the “ON × OFF × kcat” value is on record as 2.83.

B6: the “ON × OFF” value came to 0.221 and the “ON × OFF × kcat” value is 3.44.

For the molecule B7, the “ON × OFF” value is recorded as 0.211 and the “ON × OFF × kcat” value worked out at 3.85.

With B8, the “ON × OFF” value is given as 0.196 and the “ON × OFF × kcat” value amounted to 3.24.

As to B9, the “ON × OFF” value amounted to 0.252 and the “ON × OFF × kcat” value came to 5.03.

In the case of B10, the “ON × OFF” value amounted to 0.214 and the “ON × OFF × kcat” value is listed as 2.64.

The test system is the same in the next data set. Description: Estimate of kcat from initial rate at saturating hydroxyphenylpyruvate without inhibitor (ON rate ratio assay). The class given is biochemical, Z. mays. The conditions noted are these: Megatable 3; shuffled variants.
Source text: as §1
Thirty nine variants were desensitized to tembotrione compared with the backbone enzyme, Round 7, variant 9070 (SEQ ID NO:2) and all were desensitized compared with maize wild type HPPD (SEQ ID NO:1). Because the assay for ON rate ratio includes an initial rate measurement at saturating hydroxyphenylpyruvate without inhibitor and with known enzyme concentration, an estimate of kcat was available. Taking into account kcat and insensitivity parameters, 30 variants were selected for measurement of substrate saturation kinetic parameters and re-evaluation of insensitivity to tembotrione. The kinetic and insensitivity parameters were determined as described in Example 1, and were multiplied to generate the “trait fitness” parameter. The complete list of variants, i.e., of selected single substitutions in SEQ ID NO:2, analyzed with multiple inhibitors and the results obtained are shown in Table 6. The same set of 30 variants were evaluated for insensitivity to mesotrione, sulcotrione, isoxaflutole (its active diketonitrile form, abbreviated DKN in Table 6) and topramezone.
For the molecule B1, the kcat was 0.298 s⁻¹.

Turning to B2, the kcat is 0.243 s⁻¹.

Turning to B3, the kcat was 0.228 s⁻¹.

B4: the kcat was 0.313 s⁻¹.

With B5, the kcat was 0.153 s⁻¹.

On to B6, for which the kcat is 0.258 s⁻¹.

As to B7, the kcat was 0.305 s⁻¹.

In the case of B8, the kcat is 0.275 s⁻¹.

With B9, the kcat was 0.333 s⁻¹.

With B10, the catalytic constant (kcat) is 0.205 s⁻¹.

Staying with this data set, now noted: Table 7; combinatorial variants.
B1: the kcat is 0.298 s⁻¹.

In the case of B2, the kcat was 0.243 s⁻¹.

B3: the kcat is 0.228 s⁻¹.

Consider B4, for which the kcat is 0.313 s⁻¹.

For B5, the kcat is 0.153 s⁻¹.

Consider B6, for which the kcat is 0.258 s⁻¹.

Take B7: the kcat was 0.305 s⁻¹.

Regarding B8, the kcat is 0.275 s⁻¹.

As to B9, the kcat was 0.333 s⁻¹.

For B10, the kcat was 0.205 s⁻¹.

Another data set has the same test system. Description: OFF rate ratio: release of inhibitor from pre-formed enzyme-inhibitor complex. In kind it is biochemical, Z. mays. The conditions noted are these: Table 7; tembotrione; combinatorial variants. The protocol:
A quantitative indicator of kOFF can be obtained by observing the time course of an HPPD reaction as inhibitor is released from a pre-formed enzyme-inhibitor complex. HPPD and inhibitor were incubated together at concentrations of 7.2 and 8 μM, respectively. Incubations with the same concentrations of enzyme but no inhibitor were done in parallel. After 1 hr at room temperature, 5 to 10 μl of the enzyme-inhibitor complex was dispensed into the wells of the assay plate. Reactions were started with the addition of 290 to 295 μl of 25 mM Hepes, pH 7, 2 mM ascorbate, 10 μM FeSO4, 100 μM HPP and 50 nM HGD. The reactions were monitored at 320 nm for 12 min. Reaction velocity accelerates as inhibitor is released from the enzyme until a steady state is reached, during which the reaction velocity is constant. The ratio of the steady state rate in mixtures containing herbicidal inhibitor to the initial velocity of mixtures lacking inhibitor is termed the “OFF rate ratio”.
Another parameter to record is the time span required for the reactions with inhibitor to reach the steady state. FIGS. 13C and 13D illustrate the contrasting time span in which maize wild-type HPPD (FIG. 13C) and an improved variant (SEQ ID NO:78) (FIG. 13D) dissociated from mesotrione, as indicated by the accelerating reaction rates. The plateau of absorbance is due to exhaustion of the substrate. With the improved variant, not only was the steady state attained in a shorter time span (80 sec for the variant versus 280 sec for wild type), the velocity attained was twice as high as with wild type, though the enzymes were present at the same concentration (240 nM). This is because a larger fraction of the variant enzyme is free of inhibitor compared to the wild-type enzyme, and the kcat for both is nearly the same, about 220 min^−1.
Consider B1, for which the OFF rate ratio was 0.353.

Take B2: the OFF rate ratio turned out to be 0.356.

In the case of B3, the OFF rate ratio was found to be 0.356.

B4: the OFF rate ratio was found to be 0.379.

For the molecule B5, the OFF rate ratio is given as 0.389.

For B6, the OFF rate ratio is 0.325.

On to B7, for which the OFF rate ratio is listed as 0.287.

Turning to B8, the OFF rate ratio is listed as 0.273.

Turning to B9, the OFF rate ratio worked out at 0.353.

As to B10, the OFF rate ratio worked out at 0.293.

The record behind these values is US11015206B2, “Compositions and methods comprising sequences having hydroxyphenylpyruvate dioxygenase (HPPD) activity” (PIONEER HI-BRED INTERNATIONAL, INC., priority 2014, dated 2021).
